Experimental data from the supplement of paper PMC7877785.
± gives the uncertainty stated by the source.

Assay: self-splicing fitness, log relative to wild type (ln ratio); higher = more splicing; Tetrahymena group I intron in knt gene, E. coli kanamycin selection, DiMSum; sequences stand for … in CUCUCU…GGAGGGAAAAGUUAUCAGGCAUGCACCUGGUAGCUAGUCUUUAAACCAAUAGAUUGCAUCGGUUUAAAAGGCAAGACCGUCAAAUUGCGGGAAAGGGGUCAACAGCCGUUCAGUACCAAGUCUCAGGGGAAACUUUGAGAUGGCCUUGCAAAGGGUAUGGUAAUAAGCUGACGGACAUGGUCCUAACCACGCAGCCAAGUCCUAAGUCAACAGAUCUUCUGUUGAUAUGGAUGCAGUUCACAGACUAAAUGUCGGUCGGGGAAGAUGUAUUCUUCUCAUAAGAUAUAGUCGGACCUCUCCUUAAUGGGAGCUAGCGGAUGAAGUGAUGCAACACUGGAGCCGCUGGGAACUAAUUUGUAUGCGAAAGUAUAUUGAUUAGUUUUGGAGUACUCGUGGUCG
In short: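 The eight P1ex-region nucleotides of an intron in the knt kanamycin-resistance gene on pET-22b(+) were all randomised and the library put into E. coli BL21(DE3). Six replicate transformations were grown overnight at 37°C or 30°C on LB agar with or without 25 μg/mL kanamycin, together with 100 μg/mL carbenicillin, 50 μM IPTG and 0.2% rhamnose. Colonies were pooled and amplicon-sequenced on an Illumina HiSeq 2500. Fitness from DiMSum is the error-weighted combination of wild-type-normalised replicate fold changes, kanamycin over none.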

Row | Sequence | self-splicing fitness (ln) (30 °C) | self-splicing fitness (ln) (37 °C)
1 | CUACAGCAAUAUUACGCUGC | -2.88 ± 0.22 | -1.77 ± 0.35
2 | AGUUAGCAAUAUUACGCUGG | -3.07 ± 0.22 | 
3 | UACUAGCAAUAUUACGUGCC | -1.33 ± 0.14 | -2.6 ± 0.26
4 | CUUUAGCAAUAUUACGUCAU | -4.6 ± 0.39 | -2.13 ± 0.23
5 | UGUUAGCAAUAUUACGUGCA | -0.172 ± 0.15 | 0.0583 ± 0.19
6 | GCAAAGCAAUAUUACGAGGU | -3.56 ± 0.25 | -3.24 ± 0.33
7 | UGAAAGCAAUAUUACGUUAC | -3.44 ± 0.25 | -2.35 ± 0.21
8 | GUAGAGCAAUAUUACGGUAU | -1.38 ± 0.083 | -0.286 ± 0.1
9 | UAACAGCAAUAUUACGCGGC | -3.99 ± 0.28 | -2.65 ± 0.35
10 | UGAAAGCAAUAUUACGUUUC | -3.14 ± 0.34 | -2.03 ± 0.28
11 | AAAAAGCAAUAUUACGCCCG | -0.481 ± 0.16 | 0.243 ± 0.23
12 | ACCUAGCAAUAUUACGUGUU | -3.18 ± 0.1 | -1.4 ± 0.085
13 | GUAGAGCAAUAUUACGGAAA | -2.18 ± 0.28 | -2.18 ± 0.22
14 | GAACAGCAAUAUUACGAUUG | -1.62 ± 0.082 | -1.26 ± 0.11
15 | CCCCAGCAAUAUUACGGCAU | -3.43 ± 0.14 | -2.42 ± 0.14
16 | UUAUAGCAAUAUUACGGAAC | -3.09 ± 0.36 | -1.71 ± 0.44
17 | CGUCAGCAAUAUUACGAACU | -0.352 ± 0.095 | -0.0116 ± 0.11

Row | Sequence | self-splicing fitness (ln) (30 °C) | self-splicing fitness (ln) (37 °C)
18 | AGACAGCAAUAUUACGACUG | -1.14 ± 0.078 | -0.387 ± 0.084
19 | GGAAAGCAAUAUUACGGGGA | -2.87 ± 0.15 | -2.9 ± 0.26
20 | CCAGAGCAAUAUUACGGGUA | -2.35 ± 0.29 | -2.3 ± 0.3
21 | CUGGAGCAAUAUUACGGGAG | -3.19 ± 0.28 | -0.913 ± 0.19
22 | CUUUAGCAAUAUUACGGUUC | -3.33 ± 0.3 | -2.83 ± 0.29
23 | CUGAAGCAAUAUUACGCCAG | -3.75 ± 0.29 | -1.17 ± 0.21
24 | CUCUAGCAAUAUUACGGAAC | -2.81 ± 0.47 | 
25 | CAGUAGCAAUAUUACGCGCA | -1.08 ± 0.074 | -0.617 ± 0.085
26 | GAUGAGCAAUAUUACGUUCG | -2.05 ± 0.14 | -0.925 ± 0.18
27 | UUAGAGCAAUAUUACGCAAG | -1.18 ± 0.14 | -0.488 ± 0.22
28 | UCCCAGCAAUAUUACGGCGU | -0.605 ± 0.057 | 0.275 ± 0.071
29 | CAUUAGCAAUAUUACGGUCU | -3.48 ± 0.31 | -2.22 ± 0.29
30 | AAUCAGCAAUAUUACGCUGA | -2.61 ± 0.17 | -1.76 ± 0.24
31 | UUUAAGCAAUAUUACGACGC | -3.48 ± 0.2 | -0.476 ± 0.16
32 | AACCAGCAAUAUUACGAAGU | -2.26 ± 0.066 | -0.559 ± 0.069
33 | UCCUAGCAAUAUUACGUAGU | -2.62 ± 0.15 | -1.29 ± 0.18
34 | CCGGAGCAAUAUUACGCUUG | -2.67 ± 0.24 | -2.22 ± 0.27
